Measurements: patent US20230218735A1 (Pfizer, published 2023)

B1: hCDIFA-45 (antibody, V domains shown)
VH: QVQLVQSGPEVRKPGTSVKFSCKASGFTFTSAAMQWVRQARGQRLEWIGWIVVDSGNTNYAQKFQERVTITRDMSTSTVYMELSSLRSEDTAMYYCAASRGIVGTRGLFDSWGQGTLVTVSS
VL: EIVLTQSPSSLSSSVGDRVTITCRASQSIRNYLNWYQQKPGKAPKLLIYGASSLQSGVPPRFSGSGFGTDFTLTISNLQPEDFASYSCQQTYSTPLTFGGGTKLEIKR
B2: hCDIFA-35 (antibody, V domains shown)
VH: EVQLVQSGGGVVQPGRSLKLSCAASGFSFSSHGMHWVRQAPGKGLEWVALISYDGSYKYYEDSVKGRFTISRDNSKNTLYLQMNSLRAEDTAVYYCAKDWERYCSGMSCYLRNSLDYWGQGTLVTVSS
VL: QSALTQPPSVSVAPGKTAGITCGGPNIGSKSVHWYQRKPGQAPVLVVYDDRYRPSGIPERFSGSNSGNTATLSISRVEAGDEADYYCQVWDSRSDHVVFGGGTKLTVLG
B3: hCDIFA-56 (antibody, V domains shown)
VH: QVQLVQSGAEVKKPGASVKVSCKVSGYTLPELSMHWVRQAPGKGLEWMGGFDPEDDDTIYAQKFQGRVTMTEDTSTDTAYLELSSLRSEDTAVYYCATDSSPLYNENYFGSAAFDVWGQGTTVTVSS
VL: AIRMTQSPSSLSASVGDRVTITCRASQGISTYLAWYQQKPGKAPKLLLYAASRLESGVPSRFSGSGSGTDYTLTINSLQPEDFATYYCQQYDRMPRTFGQGTKVEIKR
B4: hCDIFA-8 (antibody, V domains shown)
VH: QVQLVESGGGLVKPGGSLRLSCAASGFTFSTSSMNWVRQAPGKGLEWVSSINTSGDYIYYTDSVKGRFTISRDNAKNSLYLQMNSLRAEDTAVYYCARDLGTWRDYWGQGTLVTVSS
VL: QSVLTQPASVSGSPGQSITISCTGTSSDVGSYNLVSWYHQHPGKAPKLIIYEVSKRPSGVSNRFSGSKSGNTASLTISGLQAEDEADYYCYSYAGSSAFAWVFGTGTKLTVLG
B5: hCDIFA-37 (antibody, V domains shown)
VH: QVQLLESGPGLVKTSGTLSLTCSVSGDSVSTNNWWTWVRQPPGKGLEWIGEIYYNGNTIYNPSFKSRVTISVNRSKNHFSLKLNSVTAADRAVYYCARRTWNDVGPFDYWGQGILVTVSS
VL: DIVMTQSPSSLSASIGDRVIITCRASQNINRYLNWYQQTAGKAPKLLIYGTSNLQSGVPSRFSGSGSGSGTDFTLTISSLQPEDFATYYCHQSYRTPQTFGQGTKLEIKR
B6: hCDIFA-46 (antibody, V domains shown)
VH: EVQLVESGGGLVQPGGSLRLSCAASGFTVSRNYMTWVRQAPGKGLEWVSVIYSGGSTYHADSVKGRFTISRDNSKNTLNLQMSSLRAEDTAVYYCARPCPGSSISCDYNMDVWGQGTTVTVSS
VL: QAVVTQPASVSGSPGQSITISCTGTSSDVGGYNYVSWYQQHPGKAPKLIIYEVSNRPSGVSNRFSGSKSGNTASLTISGLQAEDEADYYCTSYTSSSMIDVFGTGTKLTVLG
B7: hCDIFA-32 (antibody, V domains shown)
VH: QVQLQESGPGLVKPSETLSLTCTVSGGSISSHYWSWIRQTPGKGLEYIGNIYYTGRTKYNPSLKSRVTISADMSKNQVSLKLNSVTAADTAVYYCARGGPLMDVWGQGTTVTVSS
VL: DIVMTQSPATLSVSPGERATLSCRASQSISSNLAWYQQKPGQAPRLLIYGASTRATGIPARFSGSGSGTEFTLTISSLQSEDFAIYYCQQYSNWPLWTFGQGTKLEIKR
B8: hCDIFA-7 (antibody, V domains shown)
VH: QVQLRESGPGLVKPSETLSLTCTVSGGSVSNYYWSWIRQPPGKGLEWIGYIYSSGTINFNPSLKGRVTISGDTSKNQFSLKLSSVTAADTAVYYCARSGKWALGAFDIWGQGTMVTVSS
VL: QSALTQPPSVSGAPGQRVTISCTGSSSNIGTGYDVHWYQQLPGKVPKLLIHGNGDRPSGVPDRFSASKSGTSASLAITGLQSEDEGDYYCQSYDNSLSGLVVFGGGTKLTVLG
B9: hCDIFA-11 (antibody, V domains shown)
VH: QVQLVQSATEMKKPGASVKVSCKASGYTFSDSYMHWVRQAPGQGLEWMGWINPDSGGTNYAQKFKGWVTMTRDTSINTVYMELRRLRSDDTAVYYCARDGGDYARHSLDYWGQGTLVTVSS
VL: DVVMTQSPGTLSLSPGERVTLSCRASQSVNSDYLVWYQQKPGQAPRLLIYGASSRATGIPDRFSGSGSGPDFTLTISRLEPEDVAVYYCQLYGGLFTFGQGTRLEIKR

Legend:
[1] = molecular target: T1, genetically modified and chemically inactivated C. difficile toxoid A (Clostridium difficile, UniProt P16154 2-2710); assay: ITC
T1 construct: also called TxdA; the toxoid

C. difficile toxin A = C. difficile toxin A (Clostridium difficile, UniProt P16154 1-2710); assay: cell-based or functional assay

| Binder | DH [1] | Kd [1] | Stoichiometry [1] | EC50 TcdA [RLU], toxin neutralization assay (TNA) on IMR90 cells (C. difficile toxin A) |
| --- | --- | --- | --- | --- |
| B1 | -17.6 kcal/mol | 0.3 nM | 0.98 | 1490 RLU |
| B2 | -16.6 kcal/mol | 8 nM | 1.04 | ~52 RLU |
| B3 | -10.3 kcal/mol | 5 nM | 0.78 | 111000 RLU |
| B4 | -6.9 kcal/mol | 20 nM | 2.02 | 35400 RLU |
| B5 | -7.9 kcal/mol | 7 nM | 0.95 | 37100 RLU |
| B6 | -11.3 kcal/mol | 3 nM | 1 | 1490 RLU |
| B7 | -12 kcal/mol | 21 nM | 0.21 | 306 RLU |
| B8 | -13.5 kcal/mol | 118 nM | 2.94 | 13300 RLU |
| B9 | -17.9 kcal/mol | 4 nM | 0.97 | 60 RLU |
